Source: the DeepSol protein solubility set

Assay: soluble on expression in E. coli; label from the status in PepcDB or PDB records

Sequence: MGSDKIHHHHHHMLERRHIARDISYSHSAETRPGRIMIRLMENTTGRLRLIKRAKGYDMEVASGRSFWDVIVERYGLSLDVVGGSLDAIPRDKPVILIANHPYGILDGLMMGHILSRTRCDFRMLAHQVFRKAEDLNKVILPIDFAETKEAMKVNLQTRKDALDYLGQGGAIGIFPGGTVSTASKPFAHPMDPGWRGFTARMVAKSDAVVVPLYFDGHTSRLFQIASHLHYTLRMGLLIKEFKKRVDTPVKVVIGEPIGRDVLDPLAKDSKAMMDFLRKATYELSPTPLKSYDYGFEFEEKHRA
- soluble on expression in E. coli: not soluble

Sequence: QQVRQSPQSLTVWEGETAILNCSYEDSTFNYFPWYQQFPGEGPALLISIRSVSDKKEDGRFTIFFNKREKKLSLHITDSQPGDSATYFCAARYQGGRALIFGTGTTVSVSP
- soluble on expression in E. coli: soluble

Sequence: MGSDKIHHHHHHMRILIRADGGRDIGMGHIMRTLTLARELNKYFEVIYVCKTENEDRKTSVNGKYAKGIHKILSSGFKVKIVRENNMVEDLYEIKGDILITDSYDVNEEYFKKTSEMFHKTIYIDDMCLYDFKDVDMIINQNINADNLKYDAAGNKSLLLGCRYVMLRDEFKDLGAKIIRRKVRDVMITTGGADPFLLTLKLLYYLKQENYNFHVVVGSSFDDIYVEKLKTYEELKNINFYYNANMKELMKKCDACISAAGSTLYELCSVGVPSLSITVAENQSKAAEKFDALKIIKNLGWHNELTREKVLEEINSLSNDYNRRKNVSMTSQSIIDGMGTQRIVEKILDMV
- soluble on expression in E. coli: not soluble

Sequence: MIEIHKKFLEKDELFQFLKVAKYHHSPQNSFEVFTTLAYTGMRAGELLALKWSDIDFENNTISITKTYYNPNNNKKHYQILTRKTESSIGKITVDPHVIQLLKDYKVNVQDTWKNELYVDNNFVFTDVNGYPLVIKKLQLWIKAILKKTDITNKQISTHSFRYTHYALLIEAGVHIKEIQERLRHKDINTTMNIYAKITNSYKKDASQKFSKLEHHHHHH
- soluble on expression in E. coli: not soluble

Sequence: MSLAPVNIFKAGADEERAETARLTSFIGAIAIGDLVKSTLGPKGMDKILLSSGRDASLMVTNDGATILKNIGVDNPAAKVLVDMSRVQDDEVGDGTTSVTVLAAELLREAESLIAKKIHPQTIIAGWREATKAAREALLSSAVDHGSDEVKFRQDLMNIAGTTLSSKLLTHHKDHFTKLAVEAVLRLKGSGNLEAIHIIKKLGGSLADSYLDEGFLLDKKIGVNQPKRIENAKILIANTGMDTDKIKIFGSRVRVDSTAKVAEIEHAEKEKMKEKVERILKHGINCFINRQLIYNYPEQLFGAAGVMAIEHADFAGVERLALVTGGEIASTFDHPELVKLGSCKLIEEVMIGEDKLIHFSGVALGEACTIVLRGATQQILDEAERSLHDALCVLAQTVKDSRTVYGGGCSEMLMAHAVTQLANRTPGKEAVAMESYAKALRMLPTIIADNAGYDSADLVAQLRAAHSEGNTTAGLDMREGTIGDMAILGITESFQVKRQVLLSAAEAAEVILRVDNIIKAAPRKRVPDHHEGHHHHHH
- soluble on expression in E. coli: soluble

Sequence: MPVLGQIWELSDSQKVGSLDKRGAFVAFKLVAAAQQGKPVANSSLYDSSLQPPRFAPPVPPANMQHHFQPSFPSVGRAPPVPPPPHPSHPYSISSQQSSPAHPSSAFPPQWPITPTDQAKYDSIFQSLNPVNGKLSGAHVRPVLMNSGLDAHALARIWELSDQDKDGNLDRIEMSVALHLVYRSLQSDPVPAQLPPNLIHPSKAMYAHSSPNFAAPPHPPRPMMGSRAGSVTSLDDVNMSQSYSATMPRAYPPQPGRAYSAQAHVNGSRTSGASTPISASHSIHSFPAGEWPINTGDYADQFAQTDTNKDGLVDGMDMRAPMMTTGLSAQILAHVWALADIKKCGQLNLEQFALTMHLLDMAKRGESIPSELPLHLIPPSFRPPTEPSALHHPAQSVSTPQLPEATSMEIKEALEGENEEMKQLAESIQSMLVERKTAEEAVLQLEADMTIKNSSIKNLQVELATLESTVKQLERQKGEATRRLADYDTQIEQLESACKAQKETKEDTEKRMQQIDEDAKNAEDCKANDEKEMEELKKEIEMLDNQFKTVRGEIVKETSQREQKVAELTTLERKEARDQIQMEKLDAAIENTTKLTEQVSDAVEKSEEEMVQILRSQQRLLSTVIDQSLLSDDTVYGETAGTSSQNHVQQPPDPFASARANPAADPFAQVDQFGSSGHFDAAFPTDPFAQGGFPSDSGFAQSAPAKPAPPRPAPPKSARETPVNDPFAPSQGQSTQPAGFADFADFGSAFN
- soluble on expression in E. coli: not soluble

Sequence: MRYALAACLLLLAASSFVDAKKKKIADDELGELLDNIDADEEKKSVEPAKNPCEDHQCGWGKECVVGKKGEPTCECISKCPELDGDPMDKVCANNNQTFTSLCDLYRERCLCKRKSKECSKAFNAKVHLEYLGECKKLDECTEEHMAQFPERMADWLFQVMKELKKRRELHKLEWEELLSEAENDDEKKHVYPVIWKFCELDTKPHDKSVSHHELIPITAPVIPMESCIKPFLEGCDANNDGNISIKEWGKCLGLKEGEIQERC
- soluble on expression in E. coli: not soluble
